Laboratory results from US7659073 (HYBRITECH, dated 2010).

T1: α1-antichymotrypsin (ACT) (UniProt P01011 24-423)
T1 sequence (looked up): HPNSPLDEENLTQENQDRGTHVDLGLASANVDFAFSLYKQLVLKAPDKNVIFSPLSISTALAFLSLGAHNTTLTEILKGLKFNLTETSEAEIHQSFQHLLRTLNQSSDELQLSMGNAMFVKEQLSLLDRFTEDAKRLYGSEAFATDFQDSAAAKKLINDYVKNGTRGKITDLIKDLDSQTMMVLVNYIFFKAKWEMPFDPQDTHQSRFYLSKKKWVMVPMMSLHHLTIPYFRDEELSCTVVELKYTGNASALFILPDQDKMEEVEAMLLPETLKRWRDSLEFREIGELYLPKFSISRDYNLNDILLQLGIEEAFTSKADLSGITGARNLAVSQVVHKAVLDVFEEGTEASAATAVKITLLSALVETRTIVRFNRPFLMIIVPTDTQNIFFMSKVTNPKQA


Tests used:
[1] = target: T1, α1-antichymotrypsin (ACT); assay: incubation with ACT, HIC-HPLC profile
[2] = target: T1, α1-antichymotrypsin (ACT); assay: incubation with ACT for two hours at 37° C., HIC-HPLC profile
Procedure: High performance hydrophobic interaction chromatography (HIC-HPLC) was performed using a polypropylaspartamide column (PolyLC, distributed by Western Analytical, Temecula, Calif.). The column was 4.6×250 mm in length with a 1000 Å pore size. Samples were applied in 1.5 M ammonium sulfate and eluted with a gradient: Buffer A: 1.2 M sodium sulfate, 25 mM sodium phosphate, pH 6.3, and Buffer B: 50 mM sodium phosphate, 5% v/v 2-propanol. The gradient was […], 1 min, 30-80% B, 12 min, then isocratic at 80% B for 2 min before equilibration in Buffer A. High sensitivity peak detection was obtained with a Varian Model 9070 scanning fluorescence detector using an excitation of 232 nm and emission of 334 nm to detect the tryptophan residues in protein.
To confirm that the pro forms of PSA are not reactive with ACT, a mixture of purified mature PSA, [−4]pPSA and [−7, −5]pPSA, were incubated with ACT. […] Only the mature PSA forms an ACT complex.

Row | Binder | binding result [1] | binding result [2]
1 | [-4]pPSA (enzyme, Recombinant from AV12 cells; also found in pooled prostate cancer serum; also called [-4]proPSA) not shown | no binding (tested: 4× excess of ACT) | 
2 | [-7]pPSA (enzyme, The purified peak holds about equal levels of [-7]pPSA and [-5]pPSA, which are not resolved from each other; also called [-7]proPSA; full length [-7]pPSA) not shown |  | no binding

The remaining lines, values ahead:

Row | binding result [1] | binding result [2] | Binder
3 | no binding (tested: 4× excess of ACT) |  | [-5]pPSA (enzyme, Not resolved from [-7]pPSA by HIC-HPLC; tested as an about equal mixture with [-7]pPSA; also called [-5]proPSA; part of the [-5/-7]pPSA peak) not shown
4 | no binding (tested: 4× excess of ACT) |  | [-2]pPSA (enzyme, It is mature PSA preceded by the leader SR; also called [-2]proPSA) not shown
